B1: EHEE_rd2_0196 (parent)
chain: TETRTFDSEEEAKKAQKEAEKQGRTVTITRRDDRWEVRFD

Variants of: B1
Experiment: folding stability dG (cDNA display proteolysis); higher = more stable
Conditions: PBS, room temperature

First: TNTRTFDSEEEAKKAQKEAEKQGRTVTITRRDDRWEVRFD [E2N]
Second: TKTRTFDSEEEAKKAQKEAEKQGRTVTITRRDDRWEVRFD [E2K]
The “folding stability dG” value of the first is higher: 2.94 kcal/mol for the first, 2.86 kcal/mol for the second.

Going from THTRTFDSEEEAKKAQKEAEKQGRTVTITRRDDRWEVRFD [E2H] to TVTRTFDSEEEAKKAQKEAEKQGRTVTITRRDDRWEVRFD [E2V], the “folding stability dG” value rises from 3.05 kcal/mol to 3.15 kcal/mol.

TSTRTFDSEEEAKKAQKEAEKQGRTVTITRRDDRWEVRFD [E2S] and TMTRTFDSEEEAKKAQKEAEKQGRTVTITRRDDRWEVRFD [E2M] are the same in “folding stability dG” value: 2.95 kcal/mol for the first, 2.95 kcal/mol for the second.

Going from TGTRTFDSEEEAKKAQKEAEKQGRTVTITRRDDRWEVRFD [E2G] to TDTRTFDSEEEAKKAQKEAEKQGRTVTITRRDDRWEVRFD [E2D], the “folding stability dG” value falls from 2.79 kcal/mol to 2.71 kcal/mol.

Compared with TWTRTFDSEEEAKKAQKEAEKQGRTVTITRRDDRWEVRFD [E2W], TPTRTFDSEEEAKKAQKEAEKQGRTVTITRRDDRWEVRFD [E2P] is lower in “folding stability dG” value: 3.24 kcal/mol for the first, 2.48 kcal/mol for the second.

Going from TLTRTFDSEEEAKKAQKEAEKQGRTVTITRRDDRWEVRFD [E2L] to TITRTFDSEEEAKKAQKEAEKQGRTVTITRRDDRWEVRFD [E2I], the “folding stability dG” value rises from 2.98 kcal/mol to 3.23 kcal/mol.

Compared with TYTRTFDSEEEAKKAQKEAEKQGRTVTITRRDDRWEVRFD [E2Y], TATRTFDSEEEAKKAQKEAEKQGRTVTITRRDDRWEVRFD [E2A] is lower in “folding stability dG” value: 3.19 kcal/mol for the first, 2.84 kcal/mol for the second.

Going from TFTRTFDSEEEAKKAQKEAEKQGRTVTITRRDDRWEVRFD [E2F] to TRTRTFDSEEEAKKAQKEAEKQGRTVTITRRDDRWEVRFD [E2R], the “folding stability dG” value falls from 3.13 kcal/mol to 2.89 kcal/mol.

First: TTTRTFDSEEEAKKAQKEAEKQGRTVTITRRDDRWEVRFD [E2T]
Second: TQTRTFDSEEEAKKAQKEAEKQGRTVTITRRDDRWEVRFD [E2Q]
The “folding stability dG” value of the first is higher: 3.11 kcal/mol for the first, 3.03 kcal/mol for the second.

Compared with TECRTFDSEEEAKKAQKEAEKQGRTVTITRRDDRWEVRFD [T3C], TEFRTFDSEEEAKKAQKEAEKQGRTVTITRRDDRWEVRFD [T3F] is lower in “folding stability dG” value: 3.22 kcal/mol for the first, 3.2 kcal/mol for the second.

Going from TEERTFDSEEEAKKAQKEAEKQGRTVTITRRDDRWEVRFD [T3E] to TEHRTFDSEEEAKKAQKEAEKQGRTVTITRRDDRWEVRFD [T3H], the “folding stability dG” value rises from 2.08 kcal/mol to 2.55 kcal/mol.

Compared with TEDRTFDSEEEAKKAQKEAEKQGRTVTITRRDDRWEVRFD [T3D], TEWRTFDSEEEAKKAQKEAEKQGRTVTITRRDDRWEVRFD [T3W] is higher in “folding stability dG” value: 1.93 kcal/mol for the first, 3.06 kcal/mol for the second.

First: TEKRTFDSEEEAKKAQKEAEKQGRTVTITRRDDRWEVRFD [T3K]
Second: TEPRTFDSEEEAKKAQKEAEKQGRTVTITRRDDRWEVRFD [T3P]
The “folding stability dG” value of the first is lower: 2.48 kcal/mol for the first, 2.73 kcal/mol for the second.

First: TENRTFDSEEEAKKAQKEAEKQGRTVTITRRDDRWEVRFD [T3N]
Second: TELRTFDSEEEAKKAQKEAEKQGRTVTITRRDDRWEVRFD [T3L]
The “folding stability dG” value of the first is lower: 2.33 kcal/mol for the first, 3.15 kcal/mol for the second.

Going from TEARTFDSEEEAKKAQKEAEKQGRTVTITRRDDRWEVRFD [T3A] to TESRTFDSEEEAKKAQKEAEKQGRTVTITRRDDRWEVRFD [T3S], the “folding stability dG” value falls from 2.66 kcal/mol to 2.62 kcal/mol.

First: TEQRTFDSEEEAKKAQKEAEKQGRTVTITRRDDRWEVRFD [T3Q]
Second: TERRTFDSEEEAKKAQKEAEKQGRTVTITRRDDRWEVRFD [T3R]
The “folding stability dG” value of the first is lower: 2.46 kcal/mol for the first, 2.54 kcal/mol for the second.

Compared with TEGRTFDSEEEAKKAQKEAEKQGRTVTITRRDDRWEVRFD [T3G], TEIRTFDSEEEAKKAQKEAEKQGRTVTITRRDDRWEVRFD [T3I] is higher in “folding stability dG” value: 2.17 kcal/mol for the first, 3.35 kcal/mol for the second.

Compared with TEVRTFDSEEEAKKAQKEAEKQGRTVTITRRDDRWEVRFD [T3V], TEMRTFDSEEEAKKAQKEAEKQGRTVTITRRDDRWEVRFD [T3M] is lower in “folding stability dG” value: 3.38 kcal/mol for the first, 3.03 kcal/mol for the second.

Going from TEYRTFDSEEEAKKAQKEAEKQGRTVTITRRDDRWEVRFD [T3Y] to GETRTFDSEEEAKKAQKEAEKQGRTVTITRRDDRWEVRFD [T1G], the “folding stability dG” value falls from 3.11 kcal/mol to 2.96 kcal/mol.

Compared with METRTFDSEEEAKKAQKEAEKQGRTVTITRRDDRWEVRFD [T1M], DETRTFDSEEEAKKAQKEAEKQGRTVTITRRDDRWEVRFD [T1D] is lower in “folding stability dG” value: 3.12 kcal/mol for the first, 2.95 kcal/mol for the second.

Going from PETRTFDSEEEAKKAQKEAEKQGRTVTITRRDDRWEVRFD [T1P] to EETRTFDSEEEAKKAQKEAEKQGRTVTITRRDDRWEVRFD [T1E], the “folding stability dG” value falls from 3.02 kcal/mol to 2.93 kcal/mol.

First: NETRTFDSEEEAKKAQKEAEKQGRTVTITRRDDRWEVRFD [T1N]
Second: RETRTFDSEEEAKKAQKEAEKQGRTVTITRRDDRWEVRFD [T1R]
The “folding stability dG” value of the first is higher: 2.93 kcal/mol for the first, 2.81 kcal/mol for the second.

Compared with SETRTFDSEEEAKKAQKEAEKQGRTVTITRRDDRWEVRFD [T1S], CETRTFDSEEEAKKAQKEAEKQGRTVTITRRDDRWEVRFD [T1C] is lower in “folding stability dG” value: 3.13 kcal/mol for the first, 2.81 kcal/mol for the second.

Compared with AETRTFDSEEEAKKAQKEAEKQGRTVTITRRDDRWEVRFD [T1A], WETRTFDSEEEAKKAQKEAEKQGRTVTITRRDDRWEVRFD [T1W] is higher in “folding stability dG” value: 3.08 kcal/mol for the first, 3.67 kcal/mol for the second.

Going from IETRTFDSEEEAKKAQKEAEKQGRTVTITRRDDRWEVRFD [T1I] to VETRTFDSEEEAKKAQKEAEKQGRTVTITRRDDRWEVRFD [T1V], the “folding stability dG” value rises from 3.08 kcal/mol to 3.21 kcal/mol.

Compared with QETRTFDSEEEAKKAQKEAEKQGRTVTITRRDDRWEVRFD [T1Q], YETRTFDSEEEAKKAQKEAEKQGRTVTITRRDDRWEVRFD [T1Y] is higher in “folding stability dG” value: 2.98 kcal/mol for the first, 3.48 kcal/mol for the second.

Compared with FETRTFDSEEEAKKAQKEAEKQGRTVTITRRDDRWEVRFD [T1F], KETRTFDSEEEAKKAQKEAEKQGRTVTITRRDDRWEVRFD [T1K] is lower in “folding stability dG” value: 3.38 kcal/mol for the first, 2.76 kcal/mol for the second.

First: LETRTFDSEEEAKKAQKEAEKQGRTVTITRRDDRWEVRFD [T1L]
Second: HETRTFDSEEEAKKAQKEAEKQGRTVTITRRDDRWEVRFD [T1H]
The “folding stability dG” value of the first is lower: 3.04 kcal/mol for the first, 3.05 kcal/mol for the second.

Compared with TETHTFDSEEEAKKAQKEAEKQGRTVTITRRDDRWEVRFD [R4H], TETETFDSEEEAKKAQKEAEKQGRTVTITRRDDRWEVRFD [R4E] is lower in “folding stability dG” value: 2.77 kcal/mol for the first, 2.36 kcal/mol for the second.

Going from TETDTFDSEEEAKKAQKEAEKQGRTVTITRRDDRWEVRFD [R4D] to TETFTFDSEEEAKKAQKEAEKQGRTVTITRRDDRWEVRFD [R4F], the “folding stability dG” value rises from 1.6 kcal/mol to 3.15 kcal/mol.

First: TETATFDSEEEAKKAQKEAEKQGRTVTITRRDDRWEVRFD [R4A]
Second: TETGTFDSEEEAKKAQKEAEKQGRTVTITRRDDRWEVRFD [R4G]
The “folding stability dG” value of the first is higher: 2.65 kcal/mol for the first, 1.85 kcal/mol for the second.

With TETITFDSEEEAKKAQKEAEKQGRTVTITRRDDRWEVRFD [R4I] the “folding stability dG” value was 3.1 kcal/mol.

— the MegaScale stability set (Tsuboyama et al. 2023)
